Substrate in this series: Nc1ccccc1C(=O)C[C@H](N)C(=O)O
The experiment in a line: cells, lysate or membranes named. To be noted: other: L-kynurenine 1 to 4,000 μM, OD600 = 0.6, IPTG 1 mM, 2 h at 37° C.

B1: human recombinant kyn-3-OHase (Homo sapiens) (protein)
chain: MDSSVIQRKKVAVIGGGLVGSLQACFLAKRNFQIDVYEAREDTRVATFTRGRSINLALSHRGRQALKAVGLEDQIVSQGIPMRARMIHSLSGKKSAIPYGTKSQYILSVSRENLNKDLLTAAEKYPNVKMHFNHRLLKCNPEEGMITVLGSDKVPKDVTCDLIVGCDGAYSTVRSHLMKKPRFDYSQQYIPHGYMELTIPPKNGDYAMEPNYLHIWPRNTFMMIALPNMNKSFTCTLFMPFEEFEKLLTSNDVVDFFQKYFPDAIPLIGEKLLVQDFFLLPAQPMISVKCSSFHFKSHCVLLGDAAHAIVPFFGQGMNAGFEDCLVFDELMDKFSNDLSLCLPVFSRLRIPDDHAISDLSMYNYIEMRAHVNSSWFIFQKNMERFLHAIMPSTFIPLYTMVTFSRIRYHEAVQRWHWQKKVINKGLFFLGSLIAISSTYLLIHYMSPRSFLCLRRPWNWIAHFRNTTCFPAKAVDSLEQISNLISR
As usually defined, the Km is the concentration of substrate that gives half-maximal velocity. For B1, the Km is 57 ± 2 µM and the Vmax is 10.5±0.11 nmol/hour.mg of protein.

(Values after patent US6107069A, “Recombinant kynurenine-3-hydroxylase enzyme and process for its preparation” (priority 1996, dated 2000).)
